From paper PMC7699480

Assays:
[1] = molecular target: nimotuzumab-SpyTag (human (hG1 in the plasmid's name)); assay: electrophoresis on a bioanalyzer after covalent ligation; nimotuzumab-SpyTag (10 µM) ligated with ∆N-SpyCatcher-DFO (20 µM), 1:1 SpyTag:SpyCatcher; molecular weight of the whole conjugate
[2] = molecular target: IgG-SpyTag; assay: electrophoresis on a bioanalyzer after covalent ligation; time course at 1:1 molar ratio; IgG-SpyTag 10 µM; ∆N-SpyCatcher-DFO kept at RT or heated for 1 h beforehand; reaction stopped by 10-fold dilution and storage at −80 °C; read-out is the share of heavy chain converted
[3] = molecular target: control-IgG-SpyTag (human (hG1 in the plasmid's name)); assay: electrophoresis on a bioanalyzer after covalent ligation; ∆N-SpyCatcher-DFO reacted with IgG-SpyTag at molar ratios 0:1, 1:4, 1:2, 1:1 and 2:1; 1 h, PBS, room temperature; products analysed under reducing conditions; read-out is the share of heavy chain shifted from ~64 kDa to ~81 kDa
[4] = molecular target: nimotuzumab-SpyTag (human (hG1 in the plasmid's name)); assay: as above

nimotuzumab-SpyTag (human (hG1 in the plasmid's name)), sequence (heavy, as listed by the source, chain 1 of 2): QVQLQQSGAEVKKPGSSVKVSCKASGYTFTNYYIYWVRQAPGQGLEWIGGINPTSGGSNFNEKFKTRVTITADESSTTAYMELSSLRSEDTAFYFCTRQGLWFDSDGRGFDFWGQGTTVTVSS
nimotuzumab-SpyTag (human (hG1 in the plasmid's name)), sequence (light, as listed by the source, chain 2 of 2): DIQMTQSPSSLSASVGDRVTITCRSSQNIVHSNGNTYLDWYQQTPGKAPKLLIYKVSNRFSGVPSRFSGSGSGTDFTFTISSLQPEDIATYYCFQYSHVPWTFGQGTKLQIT

∆N-SpyCatcher-DFO (designed binder)
stoichiometry N [1]: 2 | percent of heavy chain converted (1 min) [2]: 35% | percent of heavy chain converted (15 min) [2]: 94% | percent of heavy chain converted (stopped reaction) [2]: 13% | percent of heavy chain conjugated (SpyCatcher:SpyTag 1:1) [3]: 99% | percent of heavy chain conjugated (SpyCatcher:SpyTag 1:2) [3]: 50% | percent of heavy chain conjugated (SpyCatcher:SpyTag 1:4) [3]: 25% | percent of heavy chain conjugated (SpyCatcher:SpyTag 1:1) [4]: 99% | percent of heavy chain conjugated (SpyCatcher:SpyTag 1:2) [4]: 50% | percent of heavy chain conjugated (SpyCatcher:SpyTag 1:4) [4]: 25%
